PMC9108885 (The Journal of Biological Chemistry, 2022)

Target: human α-synuclein (human, UniProt P37840 1-140, biotin (for BLI, sites not stated); 15N-labelled (for NMR))
Experiment: BLI

B1: mouse nicotinamide mononucleotide adenylyltransferase 3 (enzyme)
chain: MKNRIPVVLLACGSFNPITNMHLRLFEVARDHLHQTGRYQVIEGIISPVNDSYGKKDLVASHHRVAMARLALQTSDWIRVDPWESEQAQWMETVKVLRHHHRELLRSSAQMDGPDPSKTPSASAALPELKLLCGADVLKTFQTPNLWKDTHIQEIVEKFGLVCVSRSGHDPERYISDSPILQQFQHNIHLAREPVLNEISATYVRKALGQGQSVKYLLPEAVITYIRDQGLYINDGSWKGKGKTG
With B1 the Kd was 1900 ± 30 nM.
